Measured values published in publication PMC6805484, “The RNA-binding ubiquitin ligase MKRN1 functions in ribosome-associated quality control of poly(A) translation” (Genome Biology, 2019).

Molecular target: T1, recombinant His-PABPC1 (human, UniProt P11940 1-636)
T1 construct: hsPABPC1 expressed from pET53-DEST; also called N-His6-tagged hsPABPC1; source: E. coli Rosetta 2(DE3) pLysS, purified (HisTrap FF, HiTrap Heparin HP, Superdex 200); not shown: His6, N-terminal, kept
Assay: pull-down; biotinylated 42-nt RNA (22 nt of the SRSF4 3′ UTR followed by A20, or by 20 V as control) on NeutrAvidin agarose beads, incubated with 2 μg His-MKRN1-WT and/or His-PABPC1, 1 h at 4 °C, 50 mM Tris-HCl pH 7.4, 500 mM KCl, 12.5 mM MgCl2, 1% Triton X-100; SDS-PAGE with Coomassie staining
Settings: both partners purified

T1 sequence (P11940 whole entry): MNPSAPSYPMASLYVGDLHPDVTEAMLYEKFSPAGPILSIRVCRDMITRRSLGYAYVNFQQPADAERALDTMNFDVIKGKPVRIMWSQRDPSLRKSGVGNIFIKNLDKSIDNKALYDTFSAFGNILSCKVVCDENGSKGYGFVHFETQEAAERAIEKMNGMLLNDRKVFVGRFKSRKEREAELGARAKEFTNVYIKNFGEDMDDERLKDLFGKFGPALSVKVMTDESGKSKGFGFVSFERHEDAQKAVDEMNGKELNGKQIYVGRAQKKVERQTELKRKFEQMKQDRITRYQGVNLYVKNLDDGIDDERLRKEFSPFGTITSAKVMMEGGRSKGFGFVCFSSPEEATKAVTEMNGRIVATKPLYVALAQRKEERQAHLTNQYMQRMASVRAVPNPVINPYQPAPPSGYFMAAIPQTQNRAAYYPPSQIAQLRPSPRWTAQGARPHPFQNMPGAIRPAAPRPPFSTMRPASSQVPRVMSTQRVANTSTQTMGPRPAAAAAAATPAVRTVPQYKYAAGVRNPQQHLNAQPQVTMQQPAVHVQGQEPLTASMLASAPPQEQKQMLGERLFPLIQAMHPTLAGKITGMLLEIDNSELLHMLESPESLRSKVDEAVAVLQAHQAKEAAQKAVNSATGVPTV

B1: recombinant His-MKRN1^wt (natural protein, human, UniProt Q9UHC7 1-482, looked up)
chain: MAEAATPGTTATTSGAGAAAATAAAASPTPIPTVTAPSLGAGGGGGGSDGSGGGWTKQVTCRYFMHGVCKEGDNCRYSHDLSDSPYSVVCKYFQRGYCIYGDRCRYEHSKPLKQEEATATELTTKSSLAASSSLSSIVGPLVEMNTGEAESRNSNFATVGAGSEDWVNAIEFVPGQPYCGRTAPSCTEAPLQGSVTKEESEKEQTAVETKKQLCPYAAVGECRYGENCVYLHGDSCDMCGLQVLHPMDAAQRSQHIKSCIEAHEKDMELSFAVQRSKDMVCGICMEVVYEKANPSERRFGILSNCNHTYCLKCIRKWRSAKQFESKIIKSCPECRITSNFVIPSEYWVEEKEEKQKLILKYKEAMSNKACRYFDEGRGSCPFGGNCFYKHAYPDGRREEPQRQKVGTSSRYRAQRRNHFWELIEERENSNPFDNDEEEVVTFELGEMLLMLLAAGGDDELTDSEDEWDLFHDELEDFYDLDL
notes: hsMKRN1 expressed from pET53-DEST; also called N-His6-tagged hsMKRN1; source: E. coli Rosetta 2(DE3) pLysS, purified (HisTrap FF, HiTrap Q HP, Superdex 200); not shown: His6, N-terminal, kept
binding result: binds
